Assay results taken from US20080207503A1, “Composition and Treatment Methods for Coronary Artery Disease” (priority 2005, published 2008).

Experiment: Sphingomyelinase treatment of ICP (hydrolysis of SPM, TLC, cholesterol release)
Type: biochemical, human
Procedure: FIG. 7A show the effect of hydrolyzing SPM on ICP by sphingomyelinase on the ICP SPM to PC ratio. Following incubation of ICP in 0.25 M Tris buffer containing 20 mM MgCl2 with 50 units of bacterial sphingomyelinase for 6 hrs at 37° C., the reaction of sphingomyelinase was stopped by adding EDTA and a subsequent wash. A change in the SPM to PC ratio of insoluble ICP was examined by TLC. SPM to PC ratios of control ICP (top) and sphingomyelinase-treated ICP (bottom) were 1.69 and 0.49, respectively.
FIG. 7B show the effect of hydrolyzing SPM on ICP by sphingomyelinase on the release of ICP cholesterol by apo HDL or R-HDL. ICP sphingomyelinase treatment was as described in FIG. 7A. Release of cholesterol from control or sphingomyelinase-treated ICP was then measured after incubation of ICP at ICP FC to apo HDL ratio=1:2.5 or ICP FC to R-HDL PC ratio of 1:10.
Treatment of ICP with bacterial sphingomyelinase hydrolyzed 70% of ICP SPM. […] Rather, the release of ICP cholesterol into TBS, apo HDL, or R-HDL was reduced by prior sphingomyelinase treatment of ICP (FIG. 7B). As a model of ICP, artificial multilamellar SPM vesicles enriched with FC (SPM/FC ratio=1) or containing no FC (control SPM) were incubated with R-HDL. Then, PC and SPM content in residual insoluble multilamellar SPM vesicles and solubilized vesicles were determined by TLC (FIG. 7C). After incubation of FC-enriched multilamellar SPM vesicles (SPM/FC+, FIG. 7C, lane 1) with R-HDL (lane 4), insoluble multilamellar vesicles contained not only SPM but also PC (lane 2), while the soluble fraction contained only PC (lane 3). In contrast, following incubation of FC-free multilamellar SPM vesicles (SPM/FC−, lane 5) with R-HDL (lane 8), the residual insoluble multilamellar vesicles contained SPM and no PC (lane 6), and the upper soluble fraction contained both SPM and PC (lane 7).

B1: bacterial sphingomyelinase: Bacterial (Bacilus cereus) sphingomyelinase from Sigma (protein, UniProt P09599 28-333, looked up)
Sphingomyelinase C: DTSTDQNNTLKVMTHNVYMLSTNLYPNWGQSQRADLIGAADYIKNQDVVILNEVFDNSASDRLLGNLKKEYPNQTAVLGRSNGNEWDKTLGSYSSSTPEDGGVAIVSKWPIVEKIQYVFAKGCGPDNLSNKGFVYTKIKKNDRFVHVIGTHLQAEDSMCGKTSPASVRTNQLKEIQDFIKNKNIPNDEYVLFGGDMNVNKINAENNSDSEYASMFKTLHASIPSYTGHTATWDATTNSIAKYNFPDSPAEYLDYIIASKDHANPSFIENKVLQPKSPQWTVTSWLKKYTYDDYSDHYPVAATISMK
50 units bacterial sphingomyelinase, 6 hrs, 37° C.
  ICP SPM hydrolyzed: 70%
FIG. 7B
  release of ICP cholesterol into TBS, apo HDL or R-HDL after prior sphingomyelinase treatment (in words): reduced
Control ICP 1.69 / 1.6, TLC
  ICP SPM/PC ratio after sphingomyelinase treatment: 0.49
